Results: US20240053325A1, “NOVEL SCREENING PLATFORM TO IDENTIFY IMMUNE MODULATORY AGENTS” (PRESIDENT AND FELLOWS OF HARVARD COLLEGE, priority 2020, published 2024)

How the values were obtained:
IL-17RA/RC [1] = biological target: T1, IL-17RA/RC (Mus musculus, UniProt Q60943+Q8K4C2); assay: IL-17RA/RC reporter assay (GFP reporter cells); format: cell-based; settings: reporter cells incubated with different amounts for 24 hours
T1 construct: expressed in transfected cells

IL-17RA/RC [2] = biological target: T2, IL-17RA/RC (Mus musculus, UniProt Q60943+Q8K4C2, F156E); assay: IL-17RA/RC reporter assay (GFP reporter cells); format: cell-based; settings: 24 h stimulation, IL-17A-F 100 ng/ml; for increase of percentage of GFP+ cells / GFP expression (reporter response): TNFa 5 ng/ml
T2 construct: expressed in transfected cells

IL-10R = biological target: T3, IL-10R (Mus musculus, UniProt Q61190+Q61727, C4S); assay: IL-10 reporter; format: cell-based; settings: incubated for 24 hours with different amounts
T3 construct: expressed in transfected cells
Protocol: (§1) IL-10/IFN-γ/TNF-α reporters were incubated for 24 hours with different amounts of IL-10 (FIGS. 5A and 5B), IFN-γ (FIGS. 5C and 5D) or TNF-α (FIGS. 5E and 5F).
(§2) Furthermore, the systems and methods provided herein are applied to generate other cytokine/cytokine receptor reporter system (tTA fused onto one receptor subunit via a protease cleavage site, TEV fused to another receptor subunit, optimal linkers inserted between different proteins to ensure high signal-to-background ratio). The screening platform provided herein are used to identify immune modulatory agents including, but not limited to, small molecules and proteins that modulate cytokine signaling (FIGS. 5A-6F).

IL-17RA/RB = biological target: T4, IL-17RA/RB (Mus musculus, UniProt Q60943+Q9JIP3); assay: IL-17RA/RB reporter assay (GFP reporter cells); format: cell-based; settings: 24 h stimulation, IL-17A-F 100 ng/ml; for increase of percentage of GFP+ cells / GFP expression (reporter response): TNFa 5 ng/ml
T4 construct: expressed in transfected cells
Protocol: Doxycycline was used as a negative regulator of the GFP reporter. IL-17A-F: 100 ng/ml, TNFa: 5 ng/ml, doxycycline: 1 μg/ml.
Using a similar approach, the inventors have recently also successfully generated the IL-17RA/IL-17RB reporter line (FIG. 4). […] Since IL-17E plays a role in allergy and asthma, small molecules modulators that will be identified using this platform may create a new IP opportunity.

TNFαR1 = biological target: T5, TNFαR1 (Homo sapiens, UniProt P19438); assay: TNF-α reporter; format: cell-based; settings: incubated for 24 hours with different amounts
T5 construct: expressed in transfected cells
Protocol: as §1, §2

[3] = biological target: IL-17RA/RC reporter (IL-17RA-tTA and IL-17RC-TEV co-expressed in reporter cells) (Mus musculus); assay: cell-based or functional assay
[4] = biological target: IL-17RA/RB reporter (IL-17RA-tTA and IL-17RB-TEV co-expressed in reporter cells) (Mus musculus); assay: cell-based or functional assay
IFNγR = biological target: T6, IFNγR (Mus musculus, UniProt P15261+Q63953); assay: IFN-γ reporter; format: cell-based; settings: incubated for 24 hours with different amounts
T6 construct: expressed in transfected cells
Protocol: as §1, §2

IL-17A: IL-17 family cytokine; ligand of the IL-17RA/IL-17RC heterodimer
dose-dependent activation of the GFP reporter (IL-17RA/RC [1]): activate the GFP reporter system in a dose-dependent manner
dose-dependent activation of the GFP reporter (IL-17RA/RC [1]; listed as IL-17a): activated in a dose-dependent manner
increase of percentage of GFP+ cells / GFP expression (reporter response) (IL-17RA/RC [2]): responds highly selectively
percentage of GFP+ cells (IL-17RA/RC [2]; increased from 1%): 60%

IL-10: cytokine, used to activate the IL-10 reporter
dose dependent activation of reporter (IL-10R): dose dependent activation

IL-17F: IL-17 family cytokine
dose-dependent activation of the GFP reporter (IL-17RA/RC [1]): activate the GFP reporter system in a dose-dependent manner
dose-dependent activation of the GFP reporter (IL-17RA/RC [1]; listed as IL-17f): to a lesser degree

TNFa
increase of percentage of GFP+ cells / GFP expression (reporter response) (IL-17RA/RC [2]): failed to increase GFP expression
increase of percentage of GFP+ cells / GFP expression (reporter response) (IL-17RA/RB): failed to increase GFP expression
dose dependent activation of reporter (TNFαR1): dose dependent activation

IL-17A (ligand)
percentage of GFP^+ cells (24 h stimulation, 100 ng/ml) [3]: 60%

IL-17E (ligand)
percentage of GFP^+ cells (24 h stimulation, 100 ng/ml) [4]: 80%

B1: IL-17C: IL-17 family cytokine (protein, UniProt Q9P0M4 19-197, looked up)
Interleukin-17C: HHDPSLRGHPHSHGTPHCYSAEELPLGQAPPHLLARGAKWGQALPVALVSSLEAASHRGRHERPSATTQCPVLRPEEVLEADTHQRSISPWRYRVDTDEDRYPQKLAFAECLCRGCIDARTGRETAALNSVRLLQSLLVLRRRPCSRDGSGLPTPGAFAFHTEFIHVPVGCTCVLPRSV
dose-dependent activation of the GFP reporter (IL-17RA/RC [1]): not

B2: IFN-γ: dimerized soluble cytokine (interferon) that activates interferon gamma receptors (protein, listed as Homo sapiens)
chain: MKYTSYILAFQLCIVLGSLGCYCQDPYVKEAENLKKYFNAGHSDVADNGTLFLGILKNWKEESDRKIMQSQIVSFYFKLFKNFKDDQSIQKSVETIKEDMNVKFFNSNKKKRDDFEKLTNYSVTDLNVQRKAIHELIQVMAELSPAAKTGKRKRSQMLFRGRRASQ
dose dependent activation of reporter (IFNγR): dose dependent activation

B3: IL-17E: IL-17 family cytokine; the natural ligand of IL-17RA/RB (protein, UniProt Q9H293 33-177, looked up)
Interleukin-25: YSHWPSCCPSKGQDTSEELLRWSTVPVPPLEPARPNRHPESCRASEDGPLNSRAISPWRYELDRDLNRLPQDLYHARCLCPHCVSLQTGSHMDPRGNSELLYHNQTVFYRRPCHGEKGTHKGYCLERRLYRVSLACVCVRPRVMG
increase of percentage of GFP+ cells / GFP expression (reporter response) (IL-17RA/RB): responds highly
percentage of GFP+ cells (IL-17RA/RB; increased from 1%): 80%
